Measured values: patent US20230416942A1 (YALE UNIVERSITY, published 2023)
Each block holds one binder with its values, some of them ahead of it.

What was measured:
IL10RA = molecular target: T1, IL10RA (human, UniProt Q13651 22-235); assay: ELISA, plate-coated recombinant human protein, nanobody-Fc
T1 construct: Recombinant human protein in ELISA
T1 sequence (looked up): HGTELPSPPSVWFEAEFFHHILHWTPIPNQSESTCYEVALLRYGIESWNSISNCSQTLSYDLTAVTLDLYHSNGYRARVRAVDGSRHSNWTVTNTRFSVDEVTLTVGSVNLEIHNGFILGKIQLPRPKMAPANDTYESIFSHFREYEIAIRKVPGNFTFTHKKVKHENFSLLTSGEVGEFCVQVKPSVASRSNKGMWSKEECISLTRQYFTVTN
Experimental: (§1) Recombinant human protein was diluted in PBS to a final concentration of 5 μg/mL and was immobilized on 96-well flat bottom MaxiSorp plates (Thermo Fisher Scientific) and placed at 4° C. overnight. Plates were washed three times with 225 μL ELISA wash buffer (PBS with 0.05% Tween 20) and 200 μL ELISA blocking buffer (PBS with 1% Casein) was added to the well. Plates were incubated with shaking for 2 hours at room temperature. ELISA blocking buffer was removed from the wells and appropriate dilutions of recombinant nanobodies in 100 μL ELISA blocking buffer was added to each well. Plates were incubated with shaking for 2 hours at room temperature. Plates were washed 3 times with 225 μL ELISA wash buffer and 1:5000 goat anti-human IgG HRP (Millipore Sigma) in 100 μL ELISA blocking buffer was added to the wells. Plates were incubated with shaking for 1 hour at room temperature. Plates were washed 6 times with 225 μL ELISA wash buffer. 50 μL TMB substrate (BD Biosciences) was added to the wells and plates were incubated for 15 minutes in the dark at room temperature. 50 μL 1 M sulfuric acid was added to the wells and absorbance at 450 nm was measured in a Synergy HTX Multi-Mode Microplate Reader (BioTek).

IL1RN [1] = molecular target: T2, IL1RN (human, UniProt P18510 26-177); assay: as above
T2 construct: Recombinant human protein in ELISA and BLI
Experimental: as §1

LAIR2 = molecular target: T3, LAIR2 (human, UniProt Q6ISS4 22-152); assay: as above
T3 construct: Recombinant human protein in ELISA
T3 sequence (looked up): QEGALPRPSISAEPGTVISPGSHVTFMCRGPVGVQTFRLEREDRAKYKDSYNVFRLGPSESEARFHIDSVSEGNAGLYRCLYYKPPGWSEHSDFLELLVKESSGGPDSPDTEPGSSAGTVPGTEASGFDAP
Experimental: as §1

CCL16 [2] = molecular target: T4, CCL16 (human, UniProt O15467 24-120); assay: as above
T4 construct: Recombinant human protein in ELISA and BLI
T4 sequence (looked up): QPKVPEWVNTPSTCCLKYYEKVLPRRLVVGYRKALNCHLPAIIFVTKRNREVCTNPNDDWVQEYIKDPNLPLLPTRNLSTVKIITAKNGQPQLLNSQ
Experimental: as §1

CCL16 [3] = molecular target: T4, CCL16; assay: BLI, AHC sensor, nanobody-Fc captured, antigen in solution
Excerpt: (§2) Octet RED96 System (ForteBio) was used to perform kinetic measurement of nanobody binding to antigens. For Anti-Penta-His Biosensors (HIS1K), his-tagged recombinant human proteins were first immobilized onto the biosensors, and recombinant nanobodies fused with human IgG1 were applied to detect binding. For Anti-Human IgG Fc Capture Biosensors (AHC), recombinant nanobodies fused with human IgG1 were first loaded onto the biosensors, and probes were dipped in serial dilutions of recombinant human antigens.

IL1RN [4] = molecular target: T2, IL1RN; assay: as above
Excerpt: as §2

PROCR [5] = molecular target: T5, PROCR (human, UniProt Q9UNN8 18-210); assay: ELISA, plate-coated recombinant human protein, nanobody-Fc
T5 construct: Recombinant human protein in ELISA and BLI
T5 sequence (looked up): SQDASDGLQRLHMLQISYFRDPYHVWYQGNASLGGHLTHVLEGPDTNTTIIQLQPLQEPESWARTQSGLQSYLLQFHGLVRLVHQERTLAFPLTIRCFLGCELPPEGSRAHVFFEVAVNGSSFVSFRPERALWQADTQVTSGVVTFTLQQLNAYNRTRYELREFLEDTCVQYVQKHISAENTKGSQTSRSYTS
Experimental: as §1

PROCR [6] = molecular target: T5, PROCR; assay: BLI, AHC sensor, nanobody-Fc captured, antigen in solution
Excerpt: as §2

T2 sequence (P18510 26-177 limits assumed): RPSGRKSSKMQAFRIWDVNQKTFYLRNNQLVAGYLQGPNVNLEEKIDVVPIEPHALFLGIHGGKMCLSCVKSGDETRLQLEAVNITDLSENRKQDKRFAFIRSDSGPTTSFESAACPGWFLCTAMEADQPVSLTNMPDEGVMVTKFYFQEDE

EC50 (IL10RA): 16.9 nM
B1: IL10RA_Nb72 (Fc fusion)
chain: QVQLQESGGGLVQAGGSLRLSCAASGTISSEHAMGWYRQAPGKERELVAGITYGSITNYADSVKGRFTISRDNAKNTVYLQMNSLKPEDTAVYYCAVYYYYRATIYHALGYWGQGTQVTVSS
notes: Nanobody expressed and tested as Fc fusion (human IgG1); not shown: human IgG1 Fc (vector pCER243)

EC50 (IL1RN [1]): 6.9 nM
B2: IL1RN_Nb75 (Fc fusion)
chain: QVQLQESGGGLVQAGGSLRLSCAASGNIFRYDNMGWYRQAPGKEREFVATITYGSNTYYADSVKGRFTISRDNAKNTVYLQMNSLKPEDTAVYYCAAYFPYRSYDNSADTSSHSYWGQGTQVTVSS
notes: as for B1

EC50 (LAIR2): 0.379 nM
B3: LAIR2_Nb2.51 (Fc fusion)
chain: QVQLQESGGGLVQAGGSLRLSCAASGSIFYPSAMGWYRQAPGKERELVASIGQGGSTYYADSVKGRFTISRDNAKNTVYLQMNSLKPEDTAVYYCAVQPYSANLHRYWGQGTQVTVSS
notes: as for B1

EC50 (CCL16 [2]): 0.882 nM
Kd (CCL16 [3]): 17.4 nM
B4: CCL16_Nb2.1 (Fc fusion)
chain: QVQLQESGGGLVQAGGSLRLSCAASGYISSYWDMGWYRQAPGKERELVAAIAPGTITYYADSVKGRFTISRDNAKNTVYLQMNSLKPEDTAVYYCAASEFDNEAHDYWGQGTQVTVSS
notes: as for B1

EC50 (IL1RN [1]): 0.168 nM
Kd (IL1RN [4]): 852 nM
B5: IL1RN_Nb77 (Fc fusion)
chain: QVQLQESGGGLVQAGGSLRLSCAASGTIFTWLVMGWYRQAPGKERELVASIDPGTNTYYADSVKGRFTISRDNAKNTVYLQMNSLKPEDTAVYYCAARYVAGYTVGAYHYYWGQGTQVTVSS
notes: as for B1

EC50 (PROCR [5]): 0.287 nM
Kd (PROCR [6]): 62.9 nM
B6: PROCR_Nb88 (Fc fusion)
chain: QVQLQESGGGLVQAGGSLRLSCAASGTIFKLGYMGWYRQAPGKEREFVATITTGATTYYADSVKGRFTISRDNAKNTVYLQMNSLKPEDTAVYYCAADTYGPWAYSYWGQGTQVTVSS
notes: as for B1

EC50 (PROCR [5]): 0.0104 nM
Kd (PROCR [6]): 92.1 nM
B7: PROCR_Nb87 (Fc fusion)
chain: QVQLQESGGGLVQAGGSLRLSCAASGSISSYPYMGWYRQAPGKERELVASIASGTNTYYADSVKGRFTISRDNAKNTVYLQMNSLKPEDTAVYYCAADSTGPWSHVYWGQGTQVTVSS
notes: as for B1
